For this assay, the target named is IL-6R (UniProt P08887). The assay is described as follows: chemiluminescent immunoassay; ABEI-labelled human IL-6 on IL-6R-coated magnetic beads, diluent only (no antibody); same control value printed in all four columns.
UniProt P08887, sequence (P08887 20-358 limits assumed): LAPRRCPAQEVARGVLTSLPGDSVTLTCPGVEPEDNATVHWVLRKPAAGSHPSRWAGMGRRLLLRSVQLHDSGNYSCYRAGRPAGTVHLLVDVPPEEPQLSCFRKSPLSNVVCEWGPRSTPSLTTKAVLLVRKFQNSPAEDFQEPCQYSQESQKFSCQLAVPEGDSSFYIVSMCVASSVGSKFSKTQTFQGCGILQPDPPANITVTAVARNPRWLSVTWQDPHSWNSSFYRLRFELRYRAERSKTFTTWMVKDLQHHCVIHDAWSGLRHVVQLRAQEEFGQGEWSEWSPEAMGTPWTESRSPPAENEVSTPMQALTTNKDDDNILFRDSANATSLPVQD

“人IL-6抗原 (from UniProt P05231 30-212) (ligand)” gave an RLU (相对光强度) of 606000 RLU.
